We go through 3 molecules from patent publication US8632772B2, “Methods of treating multiple myeloma using combination therapies based on anti-CS1 antibodies” (Dana-Farber Cancer Institute, priority 2006, dated 2014).

One experiment relates to patient MM cells. Briefly: calcein-AM release ADCC assay, autologous patient MM cells with PBMC effector cells. The format is cell-based, human. On the procedure:
(§1) ADCC was measured by calcein-AM release assay, with sensitivity similar to traditional Cr^51 assay, as described previously. After informed consent, peripheral blood mononuclear cells (PBMCs) including natural killer (NK) effector cells were isolated from leukopheresis products of normal donors or peripheral blood from MM patients. Increasing concentrations (0-10 μg/ml) of either HuLuc63 or human isotype control IgG1 MSL109 mAbs were added at effector:target (E:T) ratios of 20:1, in a final volume of 200 μl per well. In some experiments, PBMC effector cells were pretreated with lenalidomide for 3 days at 0.2 μM before HuLuc63-mediated ADCC assays were performed. After 4 h incubation, 100 μl culture supernatants were transferred to a Black ViewPlate™-96 plate and arbitrary fluorescent units (AFU) were read on a fluorometer (Wallac VICTOR2). This assay is valid only if (AFU mean maximum release−medium control release)/(AFU mean spontaneous release−medium control release)>7. Calculation of % specific lysis from triplicate experiments was done using the following equation: […]
HuLuc63-mediated lysis of patient MM cells by effector cells from the same patient was measured using an ADCC assay.
HuLuc63-mediated lysis of patient myeloma cells by PBMC effector cells from the same patient was measured using an ADCC assay. CD138-purified tumor cells from a patient with MM were incubated with autologous effector cells in the presence of serial dilutions of HuLuc63 (solid symbols) or isotype control IgG1 (open symbols). PBMC effector cells were pre-incubated for 3 days in the presence or absence of with lenalidomide […] (square symbols) or vehicle control (round symbols), followed by HuLuc63-mediated ADCC. […] Similarly, pretreatment of effector cells with lenalidomide enhanced HuLuc63-induced lysis of myeloma cell lines (FIGS. 3A and 3B).

Another experiment concerns myeloma cell lines. Briefly: calcein-AM release ADCC assay, myeloma cell lines, effector cells pretreated with lenalidomide. The format is cell-based, human. On the procedure:
as §1
HuLuc63-mediated lysis of patient myeloma cells by PBMC effector cells from the same patient was measured using an ADCC assay. […]

For a further experiment, the system named is OPM2 myeloma cells. Briefly: 51Cr release ADCC assay, OPM2 cells with NK cells from healthy donors. The conditions noted are these: bortezomib 10 nM, 18 hrs; NK effector cells from healthy donors. The format is cell-based, human. The method, then:
OPM2 myeloma cells were harvested at mid-log phase, suspended at a density of 1.0×10^6 cells/mL in complete media (RPMI with 10% FBS) and treated overnight with or without Velcade (10 nM). Cells were collected, washed, re-suspended at a density of 20×10^6 viable cells/mL, and labeled for one hour with […] Na2[^51Cr]O4 per 10^6 cells. ^51Cr-Labeled cells were washed then added to a 96-well V-bottomed polystyrene plate at a cell density of 15,000 cells per 75 μL RPMI supplemented with 10% heat-inactivated FBS. HuLuc63 and a human IgG1 isotype control antibody MSL-109 were added to target cells for a final antibody concentration ranging from 0.001 to 10 μg/mL. NK cells were enriched from the whole blood of healthy donors using the RosetteSep human NK cell enrichment cocktail (Stem Cell Technologies). The enriched NK cells were added to Velcade treated or untreated OPM2 cells at a ratio of 10:1. After a 4-hour incubation at 37° C., cells were centrifuged and the supernatants measured for released ^51Cr. Maximum release was determined from target cells lysed with […] Digitonin. Antibody independent cellular cytotoxicity (AICC) was determined using target cells, plus media, plus NK cells, while spontaneous lysis was determined using ^51Cr-labelled cells plus media without NK effectors. % Cytotoxicity was calculated as ((sample−AICC)/(Maximum−AICC)*100. […]

The test system of a further experiment is MHC class I. The following applies: bortezomib treatment of myeloma cells; cited from earlier work.
For experiment [1], the system named is OPM2 tumor. The experiment can be described thus: OPM2 xenograft mouse model, second experiment (clinic-like bortezomib schedule). The experiment is classed as in vivo, mice. The following applies: HuLuc63 1 mg/kg ip twice a week, 10 doses; bortezomib 1 mg/kg ip twice weekly weeks 1, 2, 4, 5. The method, then:
In a second experiment, HuLuc63 was combined with bortezomib in vivo, using a different dose and dosing schedule for bortezomib, while keeping the original HuLuc63 dose and dosing schedule. OPM2 cells were inoculated into the flanks of SCID mice. When tumors reached an average size of about 100 mm3, animals were randomized into 4 groups of 15 mice each and were treated with 1 mg/kg of antibody administered intraperitoneally twice a week for a total of 10 doses. Bortezomib was administered intraperitoneally at a dose of 1 mg/kg twice for weeks 1 and 2, no treatment for week 3, and 1 mg/kg twice for weeks 4 and 5 for a total of 8 doses. The intent for this dosing schedule was to more closely mimic the dosing schedule of bortezomib in the clinic, where each treatment cycle consists of 2 weeks of dosing, with one week off. Tumor growth was monitored for a period of 1-2 months.

Another experiment relates to CS1. The experiment can be described thus: CS1 protein expression on OPM2 cell line (flow cytometry). The experiment is classed as cell-based, human. The conditions noted are these: OPM2 multiple myeloma cell line. The method, then:
The effect of HuLuc63 and bortezomib treatment on expression of CS1 in MM cell lines and mouse xenograft tumors was examined by flow cytometry and immunohistochemistry respectively.
The combination of HuLuc63 with bortezomib was then tested for anti-myeloma activity in vitro using ADCC assays. […] OPM2 cells were pretreated with vehicle control (square symbols) or bortezomib (10 nM; round symbols) for 18 hrs and were then subjected to HuLuc63 mediated ADCC using human NK cells from healthy donors. HuLuc63 (closed symbols) and isotype control antibody (open symbols) were used at doses ranging from 0.001-10 μg/ml.
On the technique in general: In flow cytometry, cells or beads pass a laser one at a time.

The subject of the next experiment is myeloma cells. The following applies: cited from earlier work.
In another experiment the test system is myeloma tumor. The conditions noted are these: myeloma mouse tumor model; cited from earlier work.
In experiment [2] the test system is OPM2 tumor. Briefly: OPM2 xenograft mouse model, first experiment. The format is in vivo, mice. The following applies: HuLuc63 1 mg/kg ip twice weekly, 6 doses; bortezomib 0.75 mg/kg ip twice a week.
Method: Six- to eight-week old female IcrTac:ICR-Prkdc^scid mice obtained from Taconic Farms (Germantown, N.Y.) were inoculated with 1×10^7 OPM2 (American Type Culture Collection) cells into the lower right flank. Caliper measurements were performed twice weekly to calculate tumor volume using the following formula: L×W×H/2, where L (length) is the longest side of the tumor in the plane of the animal's back, W (width) is the longest measurement perpendicular to the length and in the same plane and H (height) is taken at the highest point perpendicular to the back of the animal. When tumors reached an average size of about 100 mm^3, animals were randomized into 3 groups of 8-10 mice each and were treated with 1 mg/kg of antibody administered intraperitoneally twice a week for a total of 6 doses. […] Tumor growth was monitored for a period of 1-2 months.

As for `Nc1cccc2c1CN(C1CCC(=O)NC1=O)C2=O` (stereo not shown) [lenalidomide, reference compound], the “effect of pre-incubation of PBMC effector cells on HuLuc63-mediated ADCC activity, autologous patient sample” value in the experiment with patient MM cells (lenalidomide (0.2 µM) for 3 days before ADCC) is on record as “significantly increased the ADCC activity”. Further, the “effect of pretreatment of effector cells on HuLuc63-induced lysis of myeloma cell lines” value in the experiment with myeloma cell lines is on record as “enhanced”.
In the case of `CC(C)C[C@H](NC(=O)[C@H](Cc1ccccc1)NC(=O)c1cnccn1)B(O)O` [bortezomib, reference compound], the “effect of pre-treatment of OPM2 cells on HuLuc63-mediated ADCC” value in the experiment with OPM2 myeloma cells is “significantly enhanced”. The “cell-surface expression of MHC class I on myeloma cells” value with MHC class I is listed as “down-modulation”. Further, the anti-tumor activity result in the experiment on OPM2 tumor [1] is given as “significant anti-tumor activity”. Further, in the experiment on CS1, the “change in CS1 expression pre- or post-treatment” value is listed as “no significant change”.

B1: HuLuc63: humanized recombinant monoclonal IgG1 antibody directed to human CS1; heavy chain variable region SEQ ID NO: 5, light chain variable region SEQ ID NO: 6 (antibody, listed as Homo saiens, listed as Homo sapiens, V domains shown)
VH: EVQLVESGGGLVQPGGSLRLSCAASGFDFSRYWMSWVRQAPGKGLEWIGEINPDSSTINYAPSLKDKFIISRDNAKNSLYLQMNSLRAEDTAVYYCARPDGNYWYFDVWGQGTLVTVSS
VL: DIQMTQSPSSLSASVGDRVTITCKASQDVGIAVAWYQQKPGKVPKLLIYWASTRHTGVPDRFSGSGSGTDFTLTISSLQPEDVATYYCQQYSSYPYTFGQGTKVEIK
B1: the “lysis of myeloma cells via ADCC” value in the experiment with myeloma cells is reported as “effectively mediates lysis”. For the same molecule, the “autologous myeloma cell lysis (ADCC)” value in the experiment on patient MM cells (patient MM cells with effector cells from the same patient, 0-10 μg/ml, E:T 20:1) was “induced significant autologous myeloma cell lysis”. Besides, in the experiment with patient MM cells (resistant or refractory patient tumor cells, autologous effector cells), the “autologous tumor cell lysis in patients with MM resistant or refractory to bortezomib and/or 17-AAG” value is listed as “demonstrated”. In the experiment on myeloma tumor, the “reduction of tumor mass” value was “more than 50%”. The anti-tumor activity result in the experiment with OPM2 tumor [1] and with OPM2 tumor [2] was “significant anti-tumor activity” throughout. Further, in the experiment with CS1, the “change in CS1 expression pre- or post-treatment” value is listed as “no significant change”.
